From publication doi:10.1101/2025.11.04.686606, “The C-terminal intrinsically disordered region of a fungal LPMO binds copper and displays anti-fungal properties” (bioRxiv, 2025)

Key:
[1] = molecular target: the molecule itself; test: SEC-MALLS; Superdex200 10/300 GL Increase, 50 mM MES pH 6.5, 150 mM NaCl; protein conjugate analysis for glycans
[2] = molecular target: the molecule itself; test: SAXS; P3 at 2 mg/mL; conformational ensembles from 1 us MD simulations refined against SAXS data (Bayesian maximum entropy)

Row | Protein | stoichiometry N [1] | stoichiometry N [2]
1 | PcoAA14A_FL, full-length AA14A lytic polysaccharide monooxygenase from Pycnoporus coccineus (enzyme, UniProt A0A2I6QAZ5 22-428, looked up, glycosylated (glycans 34% of the molar mass by SEC-MALLS), PcoAA14A, AA14 family LPMO of Pycnoporus coccineus (syn. Trametes coccinea), Genbank KY769369; catalytic domain followed by a dCTR of 137 residues; theoretical mass 46 kDa; Expressed from pPICZalphaA; source: Pichia pastoris SuperMan5, secreted, purified (HisTrap); not shown: His6, C-terminal, kept) HAAFWDKSMYGFNVTAQTFPYDNRPQVPLYNMTFDQWWFHGHKDYPPNEGDFFELPAGGEVNSIISCDKGATPFYESSPGGDSGYGSNSPCPGQPMSEYHTTGIDDVKGCCMAIAYKPDVNDVQPDDFVVFSCNSTCVWEMNTKFEIPKLPACPEGGCHCAWFWIHSYDSGAEQIYMNGFKCKVTGDVGTQPLGKPAVPRRCGADPDHGKPDPTPGNCTIGAKTPMYWYQREGNNMFEDTYDAPYYNPLYGFNDGAQNDIFMDGVIASLASSGTGSSPTSTVDSSSSAAAASTSYPAQPTSSTQDAPGSSAYPSSSSDSVNSPTTQPYPASSASSTSEAQTTPAAVPTSVATEASSSPIASTTVDEAVVSSSTVGSINPTRSCKPRPSGVAAQKKKRKHARHLHNAH | 2 | 
2 | CKPRPSGVAAQKKKRKHARHLHNAH (peptide, UniProt A0A2I6QAZ5 404-428, looked up, the last 25 residues of PcoAA14A of Pycnoporus coccineus, starting with a Cys corresponding to Cys404; Unlabelled peptide in EPR and SAXS; the 5-FAM labelled form was used only on fungal spores; source: synthetic peptide, bought: GenScript) [P3 peptide, last 25 residues of PcoAA14A_dCTR] |  | 2
